These results are taken from patent publication US20110300131A1.

T1: CD70 expressed by cancer cell lines and tumor tissues (786-O, SK-OV-3/SKOV-3, Caki-1, PANC-1 and others) (UniProt P32970)
T1 sequence (looked up): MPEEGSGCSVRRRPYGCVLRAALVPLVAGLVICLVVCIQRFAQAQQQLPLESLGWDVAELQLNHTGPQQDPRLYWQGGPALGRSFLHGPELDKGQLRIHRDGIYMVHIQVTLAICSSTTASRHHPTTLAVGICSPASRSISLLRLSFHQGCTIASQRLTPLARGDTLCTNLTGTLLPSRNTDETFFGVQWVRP

B1: h1F6vc-MMAF(4) (antibody, INN chains, looked up, V domains shown)
VH: QVQLVQSGAEVKKPGASVKVSCKASGYTFTNYGMNWVRQAPGQGLKWMGWINTYTGEPTYADAFKGRVTMTRDTSISTAYMELSRLRSDDTAVYYCARDYGDYGMDYWGQGTTVTVSS
VL: DIVMTQSPDSLAVSLGERATINCRASKSVSTSGYSFMHWYQQKPGQPPKLLIYLASNLESGVPDRFSGSGSGTDFTLTISSLQAEDVAVYYCQHSREVPWTFGQGTKVEIK
modifications: vc-MMAF, 4 drugs per antibody
B2: h1F6vc-MMAE(4) (antibody, INN chains, looked up, V domains shown)
VH: B1 VH
VL: B1 VL
modifications: vc-MMAE, 4 drugs per antibody
B3: h1F6mc-MMAF(8) (antibody, INN chains, looked up, V domains shown)
VH: B1 VH
VL: B1 VL
modifications: mc-MMAF, 8 drugs per antibody

For this assay, the target named is T1, CD70 expressed by cancer cell lines and tumor tissues (786-O, SK-OV-3/SKOV-3, Caki-1, PANC-1 and others). In words: cell-based or functional assay.
With h1F6mc-MMAF(4) (antibody), the IC50, viability of SKOV-3 cells after 96 hours (Promega CelltiterGlo) was found to be 0.029 µg/mL.

The molecule B1 came in with an IC50, viability of SKOV-3 cells after 96 hours (Promega CelltiterGlo) of 0.005 µg/mL.

B2 showed an IC50, viability of SKOV-3 cells after 96 hours (Promega CelltiterGlo) of 0.06 µg/mL.

B3 gave an IC50, viability of SKOV-3 cells after 96 hours (Promega CelltiterGlo) of 0.012 µg/mL.
